Test results as given in US20260152571A1 (BIOCYTOGEN PHARMACEUTICALS BEIJING, published 2026).
Where a chain is given by its changes, count along the chain named. Names may count otherwise.

B1: P01199-IgG1-SI (antibody, V domains shown)
VH: QVQLVESGGGLVKPGGSLRLSCAASGFTFSNAWMNWVRQTPGKGLEWVGRIKSKTDGGTKDYAAPVKGRFTISRDDSKNTLYLQMNSLNTEDTAVYYCSTDPRIAVTGTDYYYGMDVWGQGTTVTVSS
VL: not shown
notes: VH and VL joined to IgG1 constant regions with SI mutations (S239D and I332E, EU numbering) in the Fc
B2: P01264-IgG1-SI (antibody, V domains shown)
VH: B1 VH with Q1E, T40A, K60T, D75H, N89K, S99A
VL: DIVMTQTPSFLSASVGDRVTITCRASQDISNYLNWYQQKPGKAPKLLIYDASNLETGVPSRFSGSGSGTDFTFTISSLQPEDIATYYCQQYDNLPITFGQGTRLEIK
notes: as for B1
B3: P01218-IgG1-SI (antibody, V domains shown)
VH: EVQLVESGGGVVQPGRSLRLSCAASGFTFSSYAMHWVRQAPGKGLEWVAVISYDGSNKYYADSVKGRFTISRDNSKNTLYLQMNSLRAEDTAVYYCARAPYYGSGSYYNSYYYYHGMDVWGQGTTVTVSS
VL: AIWMTQSPSSLSASVGDRVTITCQASQDISNYLNWYQQKPGKAPNLLIYDASNLETGVPSRFSGSGSGTDFTLTISSLQPEDIATYYCQQYDNLPLTFGGGTKVEIK
notes: VH and VL joined to IgG1 constant regions with SI mutations (S239D and I332E, EU numbering) in the Fc; also called P01218-IgGI-SI
B4: 3E6-IgG1-SI (antibody, V domains shown)
VH: EVQLVESGGGVVRPGGSLRLSCAASGFTFDDSGMSWVRQGPGKGLEWVSGINWNGGSTGYADSVKGRFTISRDNAKNSLYLQMNSLRAEDTALYYCARDPGIAVAGPYYYYYYGMDVWGQGTTVTVSS
VL: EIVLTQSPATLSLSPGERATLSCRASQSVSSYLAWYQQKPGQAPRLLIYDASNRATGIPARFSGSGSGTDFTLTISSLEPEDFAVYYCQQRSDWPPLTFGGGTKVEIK
notes: as for B1
B5: 1G7-IgG1-SI (antibody, V domains shown)
VH: QVQLVESGGGVVRPGGSLRLSCTASGFTFDDYGMTWVRQAPGKGLEWVSGINWNGGSTGYADSVKGRFTISRDNAKNSLFLQMNSLRAEDTALYYCARDQGIAVVGTHYYYYYGMDVWGQGTAVTVSS
VL: EIVLTQSPATLSLSPGERATLSCRASQSFSSYLAWYQQKPGQAPRLLIFDTSNRATGIPARFSGSGSGTDFTLTISSLEPEDFAVYYCQQRSNWPLTFGGGTKVEIK
notes: as for B1
B6: 1E9-IgG1-SI (antibody, V domains shown)
VH: EVQMVESGGDVVRPGGSLRLSCAASGFMFDDYGMSWVRHVQGKGLEWVSGIDWNGDSTGYADSVKGRFTISRDNAKNSLYLQMNSLRAEDTALYYCARDQGIAVAGPYNYYYGMDVWGQGTTVTVSS
VL: B5 VL with F29V, Q38E, T51A, L96F, G100P, K103R
notes: VH and VL joined to IgG1 constant regions with SI mutations (S239D and I332E, EU numbering) in the Fc; also called 1E9-IgGI-SI
B7: 7B9-IgG1-SI (antibody, V domains shown)
VH: EVQLVESGGGVVQPGGSLRLSCAASGFTFDDYAMHWVRQAPGKGLEWVSLISGDDGSTYYADSMKGRITISRDNSKNSLYLQMNSLRTEDTAMYYCAKASYGSGSYLYNYGMDVWGQGTTVTVFS
VL: DIQLTQSPSSLSASVGDRVTITCQASQDIINYLNWYQQKPGKAPKLLIYDTSNLETGVPSRFSGSGSGTDFAFTINSLQPEDIATYYCQQFVNLPLTFGGGTKVEIK
notes: VH and VL joined to IgG1 constant regions with SI mutations (S239D and I332E, EU numbering) in the Fc; also called 7B9-IgGI-SI
B8: 4F10-IgG1-SI (antibody, V domains shown)
VH: QVQLQESGPGLVKPSETLSLTCTVSGGSISNYYWSWIRQPPGKGLEWIGYIYYSGSTNYNPSLKSRVNISVDTSKSQVSLKLNSVIAADTAVYYCARHEDYWYFDLWGRGTLVTVSS
VL: DIQLTQSPSSLSASIRDRVTITCRASQDINNYLAWFQQKPGKAPKSLIYAVSSLESGVPSKFSGSGSGTDFTLTISSLQPEDFATYFCQQYNSYPFTFGPGTKVEIK
notes: as for B1
B9: ESK1 analog (antibody, V domains shown)
VH: QMQLVQSGAEVKEPGESLRISCKGSGYSFTNFWISWVRQMPGKGLEWMGRVDPGYSYSTYSPSFQGHVTISADKSTSTAYLQWNSLKASDTAMYYCARVQYSGYYDWFDPWGQGTLVTVSS
VL: not shown
notes: Fully human TCR-like monoclonal IgG1 antibody
B10: 3A6-IgG1-SI (antibody, V domains shown)
VH: QVQLQESGPGMVKPSETLSLTCTVSGGSISYNYWSWIRQPPGKGLEWIGYIYHSGTTKYNPSLKSRVTMSVDTSKNHFSLKLNSVTAADTAVYYCARHEDYWFFDLWGRGTLVTVSS
VL: DIQMTQSPSSLSASVGDRVTITCRASQGISNYLVWFQQKPGKAPKSLIYAASILQSGVPSKFSGSGSGTDFTLTINSLQPEDFATYYCQQYNTYPFTFGPGTKVDIK
notes: as for B1

Experiments:
[1] = target: His-tagged WT1RMF/HLA-A2 complex (human); test: SPR, Biacore 8K; antibody captured on Protein A chip, His-tagged complex as analyte; 1:1 Langmuir fit
[2] = target: WT1RMF/HLA-A2 complex on cells (human); test: flow cytometry, T2 cells pulsed with 25 µM WT1RMF, antibody 10 µg/mL
[3] = target: WT1RMF/HLA-A2 complex on cells (human); test: flow cytometry, T2 cells pulsed with 50 µM WT1RMF, antibody titrated 0.00096-45 nM, MFI curve
[4] = target: WT1RMF/HLA-A2 complex on cells (human); test: flow cytometry (MFI), T2 cells pulsed with 50 µM WT1RMF, antibody titrated

Row | Binder | Kd [1] [nM] | koff [1] [s⁻¹] | kon [1] [M⁻¹ s⁻¹] | Percentage of Positive Cells (%) [2] [%] | EC50 [3] [nM] | EC50 (read off the curve) [4] [nM]
1 | B1 | 67.4 | 0.00987 | 147000 | 88.5 |  | 
2 | B2 | 121 | 0.0177 | 146000 | 75.4 | 0.896 | 
3 | B3 | 16.1 | 0.000902 | 56200 | 92.8 | 3.48 | 
4 | B4 | 30.3 | 0.00451 | 149000 | 30.9 | 2.02 | 
5 | B5 | 9.49 | 0.00151 | 159000 | 92.4 | 0.337 | ~1
6 | B6 | 22.4 | 0.00164 | 73100 | 94.9 | 0.798 | 
7 | B7 | 15.3 | 0.00185 | 121000 | 93 | 0.553 | 
8 | B8 | 0.43 | 0.000664 | 1.54e+06 | 95.6 | 0.42 | 
9 | B9 |  |  |  | 88.8 | 4.04 | 
10 | B10 | 7100 | 0.0204 | 2870 | 70.3 | 2.26 | 
